assay: yeast display, Sf9 membrane polyspecificity reagent, FACS + sequencing; frameworks hold sequencing errors
In short: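 Sorting gates, low and high (top ~1%), were placed on anti-HA fluorescence to track expression and on streptavidin fluorescence to track reagent binding. A clone's polyreactivity label is taken from the gate it came out of. The reagent was 10% biotinylated, detergent-solubilized Sf9 membrane, applied for 1 hour at 4 °C to galactose-induced yeast display cells.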

Row | Sequence | polyreactivity (PSR sort gate)
1 | QVQLVESGGGLVQAGGSLRLSCAASGFIFYTYAMGWSRLAPGKEREFVASISKSGGRTYYADSVKRRFTMSRDNAKNTVYLQMISLKPEVTAVYYCNAYRSTHFFSYRDDYWGQGTQVTVSS | high polyreactivity
2 | QVQLVESGGGLVQAGGSLRLSCAASGFIFYVNDMGWYRQAPGKERELVADISGGTSTNYADSVKGRFTMSRDNAKNTVYLQMNSLNPEDTAVYYCNKYVAYDYWGQGTQVTVSS | low polyreactivity
3 | QVQLVESGGGLVQAGGSLRLSCAASGFIFYYAMGWYRPAPGKERELVAAISSGSSTYADSVKGRFTISRDNAKNTVYLQMNSLKPEDTAVYYCATRYSSWYSNRDYDYWGQGTQVTVSS | low polyreactivity
4 | QVQLVESGGGLVQAGGSLRLSCAASGFIFYYNAMGWSRQAPGKERELVASISRDCGRTYYADSVKGRFTISRDNAKNTVYLQMNSLKPEDTAVYYCAKKRINSRKYDYWGQGPQVTVSS | low polyreactivity
5 | QVQLVESGGGLVQAGGSLRLSCAASGFIFYYNAMGWYRQAPGKERELVAAISSSAGSTYYADSVKGRFTISRDNAKNTVYLQMNSLKPEDTAVYYCDGSRPPNTSNTGYGSWGQGTQVTVSS | low polyreactivity
6 | QVQLVESGGGLVQAGGSLRLSCAASGFIFYYNDMGWYRQAPGKERELVAAISGGVGSTYYADSVKGRFTISRDNAKNTVYLQMNSLKPEDSAVYYCATRRYSLTYGLGYDYWGQGTQVTVSS | low polyreactivity
7 | QVQLVESGGGLVQAGGSLRLSCAASGFIFYYNTMGWYRQAPGKERELVAAISSGGRTYYADSVKGRFTISRDNAKNTVYLQMNSLKPEVTAVYYCNVVTYVKYGYWGQGTQVTVSS | high polyreactivity
8 | QVQLVESGGGLVQAGGSLRLSCAASGFIFYYYAMGWYRQAPGKEREFVAGISRSGGSTYYADSVKGRFTISRDHAKNTVNLLQNSLKTEDTAVYYCNARPLYHFWYYSGEEYGYWGQGTQVTVSS | high polyreactivity
9 | QVQLVESGGGLVQAGGSLRLSCAASGFIFYYYAMGWYRQAPGKERELVAGITATGGSTYYADSVKGRFTISRDNAKNTVYLQMNSLKPEDTAVYYCARGPSGTPNGNTPYGDNRYNSWGQGTQVTVSS | low polyreactivity
10 | QVQLVESGGGLVQAGGSLRLSCAASGFIFYYYDMGWYRQAPGKERELVAAITYDGGSTYYADSVKGRFTSSRDNAKNTVYLQMNSLKPEDTAVYYCNAVYGQYYDYWGQGTQVTVSS | low polyreactivity
11 | QVQLVESGGGLVQAGGSLRLSCAASGFIFYYYTMGWYRQAPGKEREFVAAISSSGTITYYADSVKGRFTISRDNAKNTVYLQMNSLKPEDTAVYYCNAELYYPYEFWRFSGYDYWGQGTQVTVSS | low polyreactivity
12 | QVQLVESGGGLVQAGGSLRLSCAASGFIFYYYTMVWYRQAPGKERELVAAIRTGGGTNYADSVKGRFTISRDNAKNTVYLQRNSLKPEDTAVYYCAKGRQGVSYLTGTYGGRDYWGQGTQVTVSS | low polyreactivity
13 | QVQLVESGGGLVQAGGSLRLSCAASGFIIDEYAMGWYRQAPGKERELVAAISWSGSRTYYADSVKGRFTISRDNAKNTVYLQMNSLKPEDTAVYYCAKVTGVGAGRRIYWGQGTQVTVSS | low polyreactivity
14 | QVQLVESGGGLVQAGGSLRLSCAASGFIIDRNAMGWSRPAPGKERELVAAITWSTTSTYYADSVKGRFTISRDNAKNTVYLQMNSLKPEDTAVYYCAADITSPAYATYDYWGQGTQVTVSS | low polyreactivity
15 | QVQLVESGGGLVQAGGSLRLSCAASGFIIDRYAMGWYRQAPGKERELVARISWSGGSTYYADSVKGRFTISRDNAKNTVYLQMNSLKPEDTAVYYCNKAAWWLQSRYDYWGQGTQVTVSS | high polyreactivity
16 | QVQLVESGGGLVQAGGSLRLSCAASGFIIEAYTMGWYRQAPGKERELVAAITWTGGSTYYADSVKGRFTISRDNAKNTVYLQMNSLKPEDTAVYYCNVPYYSFRELSSYYWGQGTQVTVSS | high polyreactivity

Source: the nanobody polyreactivity screen of Harvey et al. (2022)
